Key:
[1] = target: T1, HCoV-HKU1 S2 stem helix peptide (Human coronavirus HKU1, isolate N1, biotin on the N-terminus); assay: BLI; details: both partners purified
T1 chain: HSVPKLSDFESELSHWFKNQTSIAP

[2] = target: T2, SARS-CoV-2 spike, full length, expressed on the cell surface (SARS-CoV-2, UniProt P0DTC2); assay: cell-based or functional assay
[3] = target: T2, SARS-CoV-2 spike, full length, …; assay: flow cytometry on cells; details: one partner purified
[4] = target: T3, HCoV-HKU1 S2 stem helix peptide, biotinylated (Human coronavirus HKU1, isolate N1, biotin on the N-terminus); assay: BLI; details: both partners purified
T3 construct: also called HCoV-HKU1 stem helix peptide
T3 chain: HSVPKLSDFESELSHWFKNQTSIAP

B1: eCC65.1-12 (antibody, V domains shown)
VH: EVQLVQSGAEVKKPGASVKVSCKASGYTFTSQYMHWVRQAPGQGLEWMGIIDPSGGGTSYAQKFRDRVSMTRDTPTSTVYMELRSLRSEDTAVYYCASLWFENPSWRDYWGQGTLVTVSS
VL: DVVMTQSPGTLSLSPGERATLSCRASQTVNKNYLAWYQQKPGQAPRLLIYHASSRATGIPDRFSGSGSGTDFTLTISRLEPEDFAVYYCQQYGASPPLFTFGPGTKLEIK
- Kd [1]: 0.129 nM
- kon [1]: 301000 M⁻¹ s⁻¹

B2: CC65.1 human monoclonal antibody (IgG) (antibody, V domains shown)
VH: EVQLVQSGAEVKKPGASVKVSCKASGYTFTSQYMHWVRQAPGQGLEWMGIIDPSGGGTSYAQKFRDRVSMTRDTPTSTVYMELRSLRSEDTAVYYCASLWFENPSWRDYWGQGTLVTVSS
VL: DVVMTQSPGTLSLSPGERATLSCRASQTVNSNYLAWYQQKPGQAPRLLIYRASSRATGIPDRFSGSGSGTDFTLTISRLEPEDFAVYYCQQYGSSPPLFTFGPGTKLEIK
- IC50 of neutralization of SARS-CoV-2 pseudovirus (HeLa-hACE2 cells) [2]: 6.16 µg/mL

B3: engineered CC65.1 mAb eCC65.1-12 (IgG) (antibody, V domains shown)
VH: EVQLVQSGAEVKKPGASVKVSCKASGYTFTSQYMHWVRQAPGQGLEWMGIIDPSGGGTSYAQKFRDRVSMTRDTPTSTVYMELRSLRSEDTAVYYCASLWFENPSWRDYWGQGTLVTVSS
VL: DVVMTQSPGTLSLSPGERATLSCRASQTVNKNYLAWYQQKPGQAPRLLIYHASSRATGIPDRFSGSGSGTDFTLTISRLEPEDFAVYYCQQYGASPPLFTFGPGTKLEIK
notes: copies: 2 + 2
- binding result [3]: binds
- fold increase in affinity over parental CC65.1 [4]: 6.7 fold

— article PMC13480645 (PLOS Pathogens, 2026)
